Test results reported in patent US20230285589A1, “LIPOSOME COMPLEX FOR CANCER TREATMENT, COMPRISING NOVEL CD47 BINDER AND POLYNUCLEOTIDE” (priority 2020, published 2023).

Biological target: recombinant CD47 protein (Homo sapiens, UniProt Q08722)
Experiment: SPR, CD47 conjugated to CM5 chip
Conditions: 250 RU CD47, 1:1 binding model
Method: Specifically, the recombinant CD47 protein was conjugated to the surface of the CM5 chip by a target SPR reaction of 250 RU through an EDC-NHS reaction to be used, and for HBS-P, the sensogram obtained through a process of association for 3 minutes and dissociation for 10 minutes at a flow rate of 30 μL/minutes was analyzed with the BiaEvaluation software using a 1:1 binding model and global fitting.

Chain of recombinant CD47 protein (Q08722 19-323): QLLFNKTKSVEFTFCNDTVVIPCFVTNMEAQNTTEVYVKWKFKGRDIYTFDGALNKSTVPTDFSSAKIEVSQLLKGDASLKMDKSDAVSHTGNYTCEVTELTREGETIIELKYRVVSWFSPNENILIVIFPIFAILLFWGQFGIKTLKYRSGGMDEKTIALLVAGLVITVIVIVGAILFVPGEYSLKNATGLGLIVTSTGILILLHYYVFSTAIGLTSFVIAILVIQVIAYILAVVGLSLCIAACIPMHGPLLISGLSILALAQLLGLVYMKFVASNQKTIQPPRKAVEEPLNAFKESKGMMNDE

“Sirpα: pure Sirpa (SEQ ID NO: 25), water-soluble domain of the original CD47 ligand” was tested, and the ka was 610000 M⁻¹ s⁻¹, the kd was 0.37 s⁻¹ and the Kd (listed as Sirpa(wt)) was 280 nM.
